Reference: PMC11997252

Columns and labels:
Conditions in all cases: glycan lost; control: Fzd4 WT
[1] = plasma membrane fractionation, Western blot
[2] = surface biotinylation, streptavidin pull-down, HEK293T
[3] = immunofluorescence co-localisation with ER marker CANX
[4] = SNAP-tag staining with membrane-impermeant dye
[5] = cycloheximide chase, Western blot, HEK293T

B1: Fzd4: N59/144Q (protein)
parent chain: MAWRGAGPSVPGAPGGVGLSLGLLLQLLLLLGPARGFGDEEERRCDPIRISMCQNLGYNVTKMPNLVGHELQTDAELQLTTFTPLIQYGCSSQLQFFLCSVYVPMCTEKINIPIGPCGGMCLSVKRRCEPVLKEFGFAWPESLNCSKFPPQNDHNHMCMEGPGDEEVPLPHKTPIQPGEECHSVGTNSDQYIWVKRSLNCVLKCGYDAGLYSRSAKEFTDIWMAVWASLCFISTAFTVLTFLIDSSRFSYPERPIIFLSMCYNIYSIAYIVRLTVGRERISCDFEEAAEPVLIQEGLKNTGCAIIFLLMYFFGMASSIWWVILTLTWFLAAGLKWGHEAIEMHSSYFHIAAWAIPAVKTIVILIMRLVDADELTGLCYVGNQNLDALTGFVVAPLFTYLVIGTLFIAAGLVALFKIRSNLQKDGTKTDKLERLMVKIGVFSVLYTVPATCVIACYFYEISNWALFRYSADDSNMAVEMLKIFMSLLVGITSGMWIWSAKTLHTWQKCSNRLVNSGKVKREKRGNGWVKPGKGSETVV
In the case of B1, the localisation_or_trafficking [1] is reported as “abolishes”, the localisation_or_trafficking [2] is reported as “abolishes” and the localisation_or_trafficking [3] is reported as “changes”. For the same protein, the localisation_or_trafficking [4] was “abolishes” and the degradation_or_half_life [5] was “decreases”.

B2: Fzd4: N144Q (protein)
parent chain: MAWRGAGPSVPGAPGGVGLSLGLLLQLLLLLGPARGFGDEEERRCDPIRISMCQNLGYNVTKMPNLVGHELQTDAELQLTTFTPLIQYGCSSQLQFFLCSVYVPMCTEKINIPIGPCGGMCLSVKRRCEPVLKEFGFAWPESLNCSKFPPQNDHNHMCMEGPGDEEVPLPHKTPIQPGEECHSVGTNSDQYIWVKRSLNCVLKCGYDAGLYSRSAKEFTDIWMAVWASLCFISTAFTVLTFLIDSSRFSYPERPIIFLSMCYNIYSIAYIVRLTVGRERISCDFEEAAEPVLIQEGLKNTGCAIIFLLMYFFGMASSIWWVILTLTWFLAAGLKWGHEAIEMHSSYFHIAAWAIPAVKTIVILIMRLVDADELTGLCYVGNQNLDALTGFVVAPLFTYLVIGTLFIAAGLVALFKIRSNLQKDGTKTDKLERLMVKIGVFSVLYTVPATCVIACYFYEISNWALFRYSADDSNMAVEMLKIFMSLLVGITSGMWIWSAKTLHTWQKCSNRLVNSGKVKREKRGNGWVKPGKGSETVV
In the case of B2, the localisation_or_trafficking [1] is reported as “abolishes”, the localisation_or_trafficking [2] is reported as “abolishes” and the localisation_or_trafficking [4] is reported as “abolishes”. The degradation_or_half_life [5] was “decreases”.

B3: Fzd4: N59Q (protein)
parent chain: MAWRGAGPSVPGAPGGVGLSLGLLLQLLLLLGPARGFGDEEERRCDPIRISMCQNLGYNVTKMPNLVGHELQTDAELQLTTFTPLIQYGCSSQLQFFLCSVYVPMCTEKINIPIGPCGGMCLSVKRRCEPVLKEFGFAWPESLNCSKFPPQNDHNHMCMEGPGDEEVPLPHKTPIQPGEECHSVGTNSDQYIWVKRSLNCVLKCGYDAGLYSRSAKEFTDIWMAVWASLCFISTAFTVLTFLIDSSRFSYPERPIIFLSMCYNIYSIAYIVRLTVGRERISCDFEEAAEPVLIQEGLKNTGCAIIFLLMYFFGMASSIWWVILTLTWFLAAGLKWGHEAIEMHSSYFHIAAWAIPAVKTIVILIMRLVDADELTGLCYVGNQNLDALTGFVVAPLFTYLVIGTLFIAAGLVALFKIRSNLQKDGTKTDKLERLMVKIGVFSVLYTVPATCVIACYFYEISNWALFRYSADDSNMAVEMLKIFMSLLVGITSGMWIWSAKTLHTWQKCSNRLVNSGKVKREKRGNGWVKPGKGSETVV
With B3 the localisation_or_trafficking [1] was “abolishes”, the localisation_or_trafficking [2] was “abolishes” and the localisation_or_trafficking [4] was “abolishes”. The degradation_or_half_life [5] was “decreases”.
